Results on 2 molecules are retold here after patent US20220168346A1 (published 2022).

In assay [1] the target is C*07:01/gp100479-487 multimer (human; mouse) (UniProt P01901). Description: pHLA multimer staining of TILs before stimulation (day 0), flow cytometry. (In general: In flow cytometry, cells or beads pass a laser one at a time.)
Assay [2] has the same target. Description: pHLA multimer staining of TILs after one peptide-specific stimulation with C*07:01-artificial APCs (day 14), flow cytometry.
For assay [3], the target named is T1, gp100 peptide on HLA-C*07:01 (human).
T1 peptide: RYGSFSVTL
As to the kind of experiment: multimer staining. As to the method: T cells (1×10⁵) were incubated for 30 minutes at 37° C. in the presence of 50 nM dasatinib (LC laboratories). The cells were then washed and incubated with 5-10 μg/ml of multimer for 30 minutes at room temperature, and R-phycoerythrin-conjugated AffiniPure Fab fragment goat anti-mouse IgG1 (Jackson ImmunoResearch Laboratories) was added for 15 minutes at 4° C. Next, the cells were washed three times and costained with an anti-CD8 mAb for 15 minutes at 4° C. Dead cells were finally discriminated using the LIVE/DEAD Fixable Dead Cell Stain kit.

On to C*07:01+ melanoma TILs, for which the percentage of multimer+ cells in CD8+ T cells was determined as 0.14% in assay [1] and 1.2% in assay [2].

B1: C*07:01/gp100479-487 TCR (TCR, V domains shown)
Valpha: DQQVKQNSPSLSVQEGRISILNCDYTNSMFDYFLWYKKYPAEGPTFLISISSIKDKNEDGRFTVFLNKSAKHLSLHIVPSQPGDSAVYFCAANSGNTPLVFGKGTRLSVIA
Vbeta: EPEVTQTPSHQVTQMGQEVILRCVPISNHLYFYWYRQILGQKVEFLVSFYNNEISEKSEIFDDQFSVERPDGSNFTLKIRSTKLEDSAMYFCASSLMGGGNTIYFGEGSWLTVV
As to B1, the binding result in assay [3] was “recognises”.
